From paper PMC3158066, “An Inserted α/β Subdomain Shapes the Catalytic Pocket of Lactobacillus johnsonii Cinnamoyl Esterase” (PLoS ONE, 2011)

B1: LJ0536 (cinnamoyl esterase) (Lactobacillus johnsonii; H225A) (protein)
chain: MATITLERDGLQLVGTREEPFGEIYDMAIIFHGFTANRNTSLLREIANSLRDENIASVRFDFNGHGDSDGKFENMTVLNEIEDANAILNYVKTDPHVRNIYLVGHSQGGVVASMLAGLYPDLIKKVVLLAPAATLKGDALEGNTQGVTYNPDHIPDRLPFKDLTLGGFYLRIAQQLPIYEVSAQFTKPVCLIHGTDDTVVSPNASKKYDQIYQNSTLHLIEGADACFSDSYQKNAVNLTTDFLQNNNAF
notes: full length in p15TV-L, E. coli BL21(DE3); His6-tag removed by TEV for kinetics; crystals: tag uncleaved, protease-treated (subtilisin or V8), residues 1-245 modelled, four C-terminal residues lost
B2: LJ0536 (cinnamoyl esterase) (Lactobacillus johnsonii; DEL147-173) (protein)
chain: MATITLERDGLQLVGTREEPFGEIYDMAIIFHGFTANRNTSLLREIANSLRDENIASVRFDFNGHGDSDGKFENMTVLNEIEDANAILNYVKTDPHVRNIYLVGHSQGGVVASMLAGLYPDLIKKVVLLAPAATLKGDALEGNTQGQQLPIYEVSAQFTKPVCLIHGTDDTVVSPNASKKYDQIYQNSTLHLIEGADHCFSDSYQKNAVNLTTDFLQNNNAF
notes: as for B1
B3: LJ0536, cinnamoyl esterase of Lactobacillus johnsonii N6.2 (wild type) (enzyme, UniProt D3YEX6 1-249, looked up)
chain: MATITLERDGLQLVGTREEPFGEIYDMAIIFHGFTANRNTSLLREIANSLRDENIASVRFDFNGHGDSDGKFENMTVLNEIEDANAILNYVKTDPHVRNIYLVGHSQGGVVASMLAGLYPDLIKKVVLLAPAATLKGDALEGNTQGVTYNPDHIPDRLPFKDLTLGGFYLRIAQQLPIYEVSAQFTKPVCLIHGTDDTVVSPNASKKYDQIYQNSTLHLIEGADHCFSDSYQKNAVNLTTDFLQNNNAF
notes: LJ0536, serine cinnamoyl esterase, Lactobacillus johnsonii N6.2; the crystallised fragment 1-245 is said to lack four C-terminal residues of the full-length protein; The protein as used for gel filtration; also called WT
B4: LJ0536 (cinnamoyl esterase) (Lactobacillus johnsonii; H32A) (protein)
chain: MATITLERDGLQLVGTREEPFGEIYDMAIIFAGFTANRNTSLLREIANSLRDENIASVRFDFNGHGDSDGKFENMTVLNEIEDANAILNYVKTDPHVRNIYLVGHSQGGVVASMLAGLYPDLIKKVVLLAPAATLKGDALEGNTQGVTYNPDHIPDRLPFKDLTLGGFYLRIAQQLPIYEVSAQFTKPVCLIHGTDDTVVSPNASKKYDQIYQNSTLHLIEGADHCFSDSYQKNAVNLTTDFLQNNNAF
notes: as for B1
B5: LJ0536 (cinnamoyl esterase) (Lactobacillus johnsonii; S68A) (protein)
chain: MATITLERDGLQLVGTREEPFGEIYDMAIIFHGFTANRNTSLLREIANSLRDENIASVRFDFNGHGDADGKFENMTVLNEIEDANAILNYVKTDPHVRNIYLVGHSQGGVVASMLAGLYPDLIKKVVLLAPAATLKGDALEGNTQGVTYNPDHIPDRLPFKDLTLGGFYLRIAQQLPIYEVSAQFTKPVCLIHGTDDTVVSPNASKKYDQIYQNSTLHLIEGADHCFSDSYQKNAVNLTTDFLQNNNAF
notes: as for B1
B6: LJ0536 (cinnamoyl esterase) (Lactobacillus johnsonii; D138A) (protein)
chain: MATITLERDGLQLVGTREEPFGEIYDMAIIFHGFTANRNTSLLREIANSLRDENIASVRFDFNGHGDSDGKFENMTVLNEIEDANAILNYVKTDPHVRNIYLVGHSQGGVVASMLAGLYPDLIKKVVLLAPAATLKGAALEGNTQGVTYNPDHIPDRLPFKDLTLGGFYLRIAQQLPIYEVSAQFTKPVCLIHGTDDTVVSPNASKKYDQIYQNSTLHLIEGADHCFSDSYQKNAVNLTTDFLQNNNAF
notes: as for B1
B7: LJ0536 (cinnamoyl esterase) (Lactobacillus johnsonii; Q145A) (protein)
chain: MATITLERDGLQLVGTREEPFGEIYDMAIIFHGFTANRNTSLLREIANSLRDENIASVRFDFNGHGDSDGKFENMTVLNEIEDANAILNYVKTDPHVRNIYLVGHSQGGVVASMLAGLYPDLIKKVVLLAPAATLKGDALEGNTAGVTYNPDHIPDRLPFKDLTLGGFYLRIAQQLPIYEVSAQFTKPVCLIHGTDDTVVSPNASKKYDQIYQNSTLHLIEGADHCFSDSYQKNAVNLTTDFLQNNNAF
notes: as for B1
B8: apo-LJ0536 (wild type), as crystallised after treatment with subtilisin (enzyme, Lactobacillus johnsonii N6.2, UniProt D3YEX6 1-245, looked up)
chain: MATITLERDGLQLVGTREEPFGEIYDMAIIFHGFTANRNTSLLREIANSLRDENIASVRFDFNGHGDSDGKFENMTVLNEIEDANAILNYVKTDPHVRNIYLVGHSQGGVVASMLAGLYPDLIKKVVLLAPAATLKGDALEGNTQGVTYNPDHIPDRLPFKDLTLGGFYLRIAQQLPIYEVSAQFTKPVCLIHGTDDTVVSPNASKKYDQIYQNSTLHLIEGADHCFSDSYQKNAVNLTTDFLQN
notes: LJ0536, serine cinnamoyl esterase, Lactobacillus johnsonii N6.2; residues 1-245 seen in the map, four C-terminal residues lost to the protease, plus five residues of the expression tag; Crystallised with the His6 tag uncleaved, but only five residues of the expression tag are seen after the protease treatment; also called apo WT LJ0536; not shown: His6, N-terminal, kept
B9: LJ0536 Ser106Ala mutant, as crystallised after treatment with V8 protease (enzyme, Lactobacillus johnsonii N6.2)
chain: MATITLERDGLQLVGTREEPFGEIYDMAIIFHGFTANRNTSLLREIANSLRDENIASVRFDFNGHGDSDGKFENMTVLNEIEDANAILNYVKTDPHVRNIYLVGHAQGGVVASMLAGLYPDLIKKVVLLAPAATLKGDALEGNTQGVTYNPDHIPDRLPFKDLTLGGFYLRIAQQLPIYEVSAQFTKPVCLIHGTDDTVVSPNASKKYDQIYQNSTLHLIEGADHCFSDSYQKNAVNLTTDFLQNNNAF
notes: made from the p15TV-L wild-type clone; also called LJ0536 S106A; S106A; not shown: His6, N-terminal, kept

Experiments:
[1] = molecular target: T1, LJ0536 (cinnamoyl esterase) (Lactobacillus johnsonii, UniProt D3YEX6, S106A); test: X-ray crystallography, co-crystal; assay type: binding; conditions: 0.1 M Tris pH 8.5, active site
T1 construct: gene FEE39_08260; full length in p15TV-L, E. coli BL21(DE3); His6-tag removed by TEV for kinetics; crystals: tag uncleaved, protease-treated (subtilisin or V8), residues 1-245 modelled, four C-terminal residues lost

purified protein = substrate: CCCC(=O)Oc1ccc([N+](=O)[O-])cc1; test: purified protein; assay type: biochemical, Lactobacillus johnsonii; conditions: HEPES pH 7.80, 25 °C (typical assay; saturation conditions as in ref 14), pH 7.8
[2] = molecular target: the molecule itself; test: SEC; gel filtration on Superose 12 10/300GL (FPLC), mobile phase 10 mM HEPES with 150 mM NaCl, calibrated with molecular weight standards
[3] = molecular target: the molecule itself; test: crystal structure; sitting drop, protein at 15 mg/mL with His6-tag uncleaved, pre-treated with subtilisin (apo) or V8 protease (S106A); S106A co-crystallised with ethyl ferulate
[4] = deletion made by ligation at a SmaI junction

Row | Molecule | Km (purified protein) | Vmax (purified protein) | kcat (purified protein) | kcat/Km (purified protein) | also measured
1 | COc1cc(/C=C/C(=O)O)ccc1O [ferulic acid] | – | – | – | – | X-ray crystallography, co-crystal ([1]; 5 mM ligand, 1.75 Å): co-crystallized this mutant with ferulic acid, ethyl ferulate, or chlorogenic acid
2 | CCOC(=O)/C=C/c1ccc(O)c(OC)c1 [ethyl ferulate] | – | – | – | – | X-ray crystallography, co-crystal ([1]; Form I (5 mM ligand, 1.58 Å, 3PFB) and Form II (25 mM ligand, 1.82 Å, 3QM1)): The Ser106Ala-ethyl ferulate complex crystallized in two forms
3 | B1 | 190 ± 40 µM | 0.65 µmol/min/mg | 0.3 s⁻¹ | 1570 M⁻¹ s⁻¹ | –
4 | B2 | – | – | – | – | Km (purified protein; [4]): 650 ± 120 µM; Vmax (purified protein; [4]): 0.28 µmol/min/mg; kcat (purified protein; [4]): 0.13 s⁻¹; kcat/Km (purified protein; [4]): 198 M⁻¹ s⁻¹
5 | B3 | 160 ± 20 µM | 3.34 µmol/min/mg | 1.53 s⁻¹ | 9590 M⁻¹ s⁻¹ | binding result [2]: binds
6 | B4 | 130 ± 80 µM | 0.09 µmol/min/mg | 0.04 s⁻¹ | 318 M⁻¹ s⁻¹ | –
7 | B5 | 80 ± 20 µM | 0.47 µmol/min/mg | 0.22 s⁻¹ | – | –
8 | B6 | 220 ± 30 µM | 1.23 µmol/min/mg | 0.57 s⁻¹ | 2570 M⁻¹ s⁻¹ | –
9 | B7 | 290 ± 40 µM | 2.05 µmol/min/mg | 0.94 s⁻¹ | 3250 M⁻¹ s⁻¹ | –
10 | B8 | – | – | – | – | binding result [3]: binds
11 | B9 | – | – | – | – | binding result [3]: binds
